# Measurements from article PMC7147772, “Biochemical characterization of the Nocardia lactamdurans ACV synthetase” (PLoS ONE, 2020).
# Key:
# Assay in all cases: ACV tripeptide formation, HPLC/MS
# Type in all cases: biochemical, Amycolatopsis lactamdurans
# [1] = tested on: CC(C)[C@H](N)C(=O)O; conditions: L-α-Aaa and L-Cys co-substrates, 5 mM ATP, 5 mM MgCl2, 2 mM DTT, CoA and Sfp, pH 7.0, 30 °C, module 3
# [2] = tested on: N[C@@H](CCCC(=O)O)C(=O)O; conditions: L-Cys and L-Val co-substrates, 5 mM ATP, 5 mM MgCl2, 2 mM DTT, CoA and Sfp, pH 7.0, 30 °C, module 1
# [3] = tested on: N[C@@H](CS)C(=O)O; conditions: L-α-Aaa and L-Val co-substrates, 5 mM ATP, 5 mM MgCl2, 2 mM DTT, CoA and Sfp, pH 7.0, 30 °C, module 2
substance,measurement,setting,value
Nl ACVS (L-δ-(α-aminoadipoyl)-L-cysteinyl-D-valine synthetase) (Amycolatopsis lactamdurans),Km,[1],150 ± 4 µM
same,Km,[2],640 ± 16 µM
same,Km,[3],40 ± 1 µM
